Target: T1, MBP-RAD51AP1-His6 WT (UniProt Q96B01 1-352)
T1 sequence: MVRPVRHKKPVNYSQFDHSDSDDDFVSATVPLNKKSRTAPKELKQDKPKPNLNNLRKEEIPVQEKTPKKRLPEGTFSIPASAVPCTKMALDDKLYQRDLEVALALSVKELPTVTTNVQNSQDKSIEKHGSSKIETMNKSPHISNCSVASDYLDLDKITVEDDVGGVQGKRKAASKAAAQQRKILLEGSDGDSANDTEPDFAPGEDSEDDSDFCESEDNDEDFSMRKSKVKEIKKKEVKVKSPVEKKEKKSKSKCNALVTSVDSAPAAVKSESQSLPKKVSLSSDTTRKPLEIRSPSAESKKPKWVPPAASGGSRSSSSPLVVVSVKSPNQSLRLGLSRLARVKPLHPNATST
Assay: EMSA

B1: TERRA R-loop (mixed)
DNA 1: CATTGCATATTTAAAACATGTTGGATCTCAATTTCTATTTTATTTTTATTTTTTATTTCTTTATTTTACCATGAATTCAAATGACCTCTTATCAAGTGAC
DNA 2: GTCACTTGATAAGAGGTCATTTGAATTCATCCTAACCCTAACCCTAACCCTAACCCTAACCCTAACCCTAAGAGATCCAACATGTTTTAAATATGCAATG
RNA: UUAGGGUUAGGGUUAGGGUUAGGGUUAGGGUUAGGGUUAG
  binding result: binds

— article PMC9713952
